B1: sybody Sb16 (VHH)
VHH: QVQLVESGGGLVQAGGSLRLSCAASGFPVAYKTMWWYRQAPGKEREWVAAIESYGIKWTRYADSVKGRFTISRDNAKNTVYLQMNSLKPEDTAVYYCIVWVGAQYHGQGTQVTVSA
B2: sybody Sb14 (VHH)
VHH: QVQLVESGGGLVQAGGSLRLSCAASGFPVQAREMEWYRQAPGKEREWVAAIKSTGTYTAYAYSVKGRFTISRDNAKNTVYLQMNSLKPEDTAVYYCYVYVGSSYIGQGTQVTVSA
B3: sybody Sb15 (VHH)
VHH: QVQLVESGGGLVQAGGSLRLSCAASGFPVKNFEMEWYRKAPGKEREWVAAIQSGGVETYYADSVKGRFTISRDNAKNTVYLQMNSLKPEDTAVYYCFVYVGRSYIGQGTQVTVS
B4: sybody Sb68 (VHH)
VHH: QVQLVESGGGSVQAGGSLRLSCAASGSISSITYLGWFRQAPGKEREGVAALITVNGHTYYADSVKGRFTVSLDNAKNTVYLQMNSLKPEDTALYYCAAAAWGYAWPLHQDDYWYWGQGTQVTVSA

These binders were tested against T1, SARS-CoV-2 spike receptor-binding domain (amino acids 333–529), bacteria-expressed and refolded (SARS-CoV-2, UniProt P0DTC2 333-529) (assay: SPR).
B1 showed a Kd of 40.6 nM.
In the case of B2, the Kd is reported as 13.8 nM.

Biological target: T1, SARS-CoV-2 spike receptor-binding …
Assay: SPR
Remark: another data set of the same source
With B1 the koff was 0.02 s⁻¹.
In the case of B2, the koff is reported as 0.007 s⁻¹.
B3 gave a koff of 0.011 s⁻¹.
For B4, the koff was 0.023 s⁻¹.

From PMC8444450 (2021)
